The record followed here is PMC11406491, “A Plasmonic Nanoledge Array Sensor for Selective Detection of Cardiovascular Disease Biomarkers in Human Whole Blood”.

One data set has as its target T1, myoglobin (UniProt P02144 2-154).
T1 sequence: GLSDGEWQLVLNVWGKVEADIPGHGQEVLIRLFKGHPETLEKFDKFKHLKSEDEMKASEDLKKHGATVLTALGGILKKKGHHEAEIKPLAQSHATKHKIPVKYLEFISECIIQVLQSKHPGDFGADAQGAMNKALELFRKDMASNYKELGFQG
The data set is described as follows: SPR (transmitted, EOT peak shift); up to 125 ng/mL; minimal shift, described as poor binding; human serum (Methods) or PBS (Fig S8); Aptamer immobilized on gold nanoledge chip (cystamine/glutaraldehyde, PEG and glycine blocked); PBS, human serum or whole blood; 20 min incubation; room temperature (stated for stability test); pH and salt not given. Particulars: protein: commercial.

The target of data set [1] is cardiac troponin I (cTnI) (human, UniProt P19429 2-210). The data set is described as follows: SPR (transmitted, EOT peak shift); PBS; LOD 0.079 ng/mL; Aptamer immobilized on gold nanoledge chip (cystamine/glutaraldehyde, PEG and glycine blocked); PBS, human serum or whole blood; 20 min incubation; room temperature (stated for stability test); pH and salt not given. As to conditions: protein: commercial.
Chain of cardiac troponin I (cTnI) (P19429 2-210): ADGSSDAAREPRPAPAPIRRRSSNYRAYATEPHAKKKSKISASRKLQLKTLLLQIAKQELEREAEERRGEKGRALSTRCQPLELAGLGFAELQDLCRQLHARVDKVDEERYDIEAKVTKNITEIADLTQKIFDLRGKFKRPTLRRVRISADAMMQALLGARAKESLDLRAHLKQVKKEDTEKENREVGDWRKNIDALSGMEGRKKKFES

Regarding CGTGCAGTACGCCAACCTTTCTCATGCGCTGCCCCTCTTA (ssDNA, 5' amino modifier C6 (5AmMC6)) [cTnI-specific aptamer], the figures for the binding result (with myoglobin; in data set [1]) were “no binding” and “binds”, respectively.
